This is an account of results in patent publication US20210163595A1.

Experiment [1] concerns the target cyno PD-1 expressed on cells (cynomolgus monkey) (UniProt B0LAJ3). Nature of the experiment: flow cytometry on CHO cells expressing cyno PD-1; negative control; fit value of a flat curve; no unit in the table. For orientation: Flow cytometry measures light scatter and fluorescence of single cells or particles in a stream.
Experiment [2] addresses human PD-1 expressed on the cell surface (human) (UniProt Q15116). As to the kind of experiment: flow cytometry on CHO cells expressing human PD-1; negative control; fit value of a flat curve; no unit in the table.
Chain of UniProt Q15116 (Q15116 25-198 limits assumed): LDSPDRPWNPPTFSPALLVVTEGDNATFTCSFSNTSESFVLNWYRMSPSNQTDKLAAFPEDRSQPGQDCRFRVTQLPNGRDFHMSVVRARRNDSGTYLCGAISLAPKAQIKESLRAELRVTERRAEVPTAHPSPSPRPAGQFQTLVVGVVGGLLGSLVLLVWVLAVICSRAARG
For experiment [3] the target is unchanged. Nature of the experiment: cell-based or functional assay.

Chain of UniProt B0LAJ3 (B0LAJ3 entry or part of it limits assumed): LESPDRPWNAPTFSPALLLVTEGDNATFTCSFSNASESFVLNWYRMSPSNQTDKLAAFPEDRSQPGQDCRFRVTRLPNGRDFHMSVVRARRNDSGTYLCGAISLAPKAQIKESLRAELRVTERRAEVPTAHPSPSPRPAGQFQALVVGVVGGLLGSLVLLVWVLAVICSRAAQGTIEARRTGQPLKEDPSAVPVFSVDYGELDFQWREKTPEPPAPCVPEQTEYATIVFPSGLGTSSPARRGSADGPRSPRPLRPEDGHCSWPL

With huIgG1 Fc, the LogEC50 was -6.89 in experiment [1] and -7.75 in experiment [2]. Regarding human IgG Fc fragment, the IL-17 and IFN-γ levels, human whole blood assay (EC50) in experiment [3] was more than 100 nM.
